Data as given in patent US20150203577A1 (Chugai, published 2015).

Legend:
mouse FcγRII = molecular target: T1, mouse FcγRII (mouse, UniProt P08101 30-210); test: SPR Biacore T200, KD ratio
T1 construct: also called mFcγRII; mFcgRII
T1 sequence: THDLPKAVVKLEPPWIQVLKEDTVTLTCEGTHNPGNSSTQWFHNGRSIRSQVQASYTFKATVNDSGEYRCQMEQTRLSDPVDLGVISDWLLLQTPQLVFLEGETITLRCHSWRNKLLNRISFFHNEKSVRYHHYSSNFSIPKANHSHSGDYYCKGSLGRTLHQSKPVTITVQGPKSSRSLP
Excerpt: (§1) The antibody H chain variable region used was the variable region H237 (SEQ ID NO: 1) of the H chain VH3-IgG1 of the anti-IL-6 receptor antibody Fv4-IgG1 described in WO2009/125825. The antibody L chain commonly used was the L chain MRAL-k0 (SEQ ID NO: 2) of the anti-IL-6 receptor antibody tocilizumab. […] The resulting variant group was designated as MB110 variants. These variants were expressed and purified by the method of Reference Example 1 and evaluated for their binding to mFcγRII and mFcγRIII by the method of Reference Example 2 using Biacore T200.
(§2) Each altered antibody was analyzed for its interaction with each Fcγ receptor prepared above using Biacore T100 (GE Healthcare Japan Corp.), Biacore T200 (GE Healthcare Japan Corp.), Biacore A100, or Biacore 4000. The running buffer used was HBS-EP+ (GE Healthcare Japan Corp.). The assay temperature was set to 25° C. The sensor chips used were chips prepared by immobilizing Protein L (ACTIGEN or BioVision) onto Series S Sensor Chip CM5 (GE Healthcare Japan Corp.) or Series S Sensor Chip CM4 (GE Healthcare Japan Corp.) by the amine coupling method.
(§3) In order to calculate the KD value of each altered antibody for FcγR, kinetic analysis was conducted according to the following method: first, the antibody of interest was captured onto any of these chips and allowed to interact with mFcγR diluted with a running buffer. For the obtained sensorgram, the assay results were globally fit into the 1:1 Langmuir binding model using Biacore Evaluation Software to calculate an association rate constant ka (L/mol/s) and a dissociation rate constant kd (1/s). From these values, the dissociation constant KD (mol/L) was calculated.

mouse FcγRIII = molecular target: T2, mouse FcγRIII (mouse, UniProt P08508 31-215); test: SPR Biacore T200, KD ratio
T2 construct: also called mFcγRIII; mFcgRIII
T2 chain: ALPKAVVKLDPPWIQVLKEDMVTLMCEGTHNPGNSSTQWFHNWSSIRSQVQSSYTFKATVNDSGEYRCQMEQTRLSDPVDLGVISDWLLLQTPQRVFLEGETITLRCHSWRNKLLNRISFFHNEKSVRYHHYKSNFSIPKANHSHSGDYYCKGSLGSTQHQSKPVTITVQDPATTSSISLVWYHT
Excerpt: as §1, §2, §3

Binder	Relative mFcγRII-binding activity (MB110 = 1) (mouse FcγRII) [fold]	relative mFcγRII-binding activity (mIgG1 = 1) (mouse FcγRII) [fold]	Relative mFcγRIII-binding activity (MB110 = 1) (mouse FcγRIII) [fold]	relative mFcγRIII-binding activity (mIgG1 = 1) (mouse FcγRIII) [fold]
MB324 (antibody, mouse IgG1, kappa, copies: 2 + 2) heavy: QVQLQESGPGLVKPSETLSLTCAVSGHSISHDHAWSWVRQPPGEGLEWIGFISYSGITNYNPSLQGRVTISRDNSKNTLYLQMNSLRAEDTAVYYCARSLARTTAMDYWGEGTLVTVSSAKTTPPSVYPLAPGSAAQTNSMVTLGCLVKGYFPEPVTVTWNSGSLSSGVHTFPAVLQSDLYTLSSSVTVPSSTWPSETVTCNVAHPASSTKVDKKIVPRDCGCKPCICEDEEVEDHFIFPPKPKDVLTITLTPKVTCVVVDISKDDPEVQFSWFVDDVEVHTAQTQPREEQFNSTFRSVSELPIMHQDWLNGKEFKCRVNSAAFPAPIEKTISKTKGRPKAPQVYTIPPPKEQMAKDKVSLTCMITDFFPEDITVEWQWNGQPAENYKNTQPIMDTDGSYFVYSKLNVQKSNWEAGNTFTCSVLHEGLHNHHTEKSLSHSPGK light: not shown	0.09	1.1	0.03	0.1
MB322 (antibody, mouse IgG1, kappa, copies: 2 + 2) heavy: QVQLQESGPGLVKPSETLSLTCAVSGHSISHDHAWSWVRQPPGEGLEWIGFISYSGITNYNPSLQGRVTISRDNSKNTLYLQMNSLRAEDTAVYYCARSLARTTAMDYWGEGTLVTVSSAKTTPPSVYPLAPGSAAQTNSMVTLGCLVKGYFPEPVTVTWNSGSLSSGVHTFPAVLQSDLYTLSSSVTVPSSTWPSETVTCNVAHPASSTKVDKKIVPRDCGCKPCICEDEEVEDVFIFPPKPKDVLTITLTPKVTCVVVDISKDDPEVQFSWFVDDVEVHTAQTQPREEQFNSTFRSVSELPIMHQDWLNGKEFKCRVNSAAFPAPIEKTISKTKGRPKAPQVYTIPPPKEQMAKDKVSLTCMITDFFPEDITVEWQWNGQPAENYKNTQPIMDTDGSYFVYSKLNVQKSNWEAGNTFTCSVLHEGLHNHHTEKSLSHSPGK light: not shown	0.75	9.2	0.31	1.3
MB323 (antibody, mouse IgG1, kappa, copies: 2 + 2) heavy: QVQLQESGPGLVKPSETLSLTCAVSGHSISHDHAWSWVRQPPGEGLEWIGFISYSGITNYNPSLQGRVTISRDNSKNTLYLQMNSLRAEDTAVYYCARSLARTTAMDYWGEGTLVTVSSAKTTPPSVYPLAPGSAAQTNSMVTLGCLVKGYFPEPVTVTWNSGSLSSGVHTFPAVLQSDLYTLSSSVTVPSSTWPSETVTCNVAHPASSTKVDKKIVPRDCGCKPCICEDEEVEDEFIFPPKPKDVLTITLTPKVTCVVVDISKDDPEVQFSWFVDDVEVHTAQTQPREEQFNSTFRSVSELPIMHQDWLNGKEFKCRVNSAAFPAPIEKTISKTKGRPKAPQVYTIPPPKEQMAKDKVSLTCMITDFFPEDITVEWQWNGQPAENYKNTQPIMDTDGSYFVYSKLNVQKSNWEAGNTFTCSVLHEGLHNHHTEKSLSHSPGK light: not shown	0.13	1.7	0.03	0.1
MB326 (antibody, mouse IgG1, kappa, copies: 2 + 2) heavy: QVQLQESGPGLVKPSETLSLTCAVSGHSISHDHAWSWVRQPPGEGLEWIGFISYSGITNYNPSLQGRVTISRDNSKNTLYLQMNSLRAEDTAVYYCARSLARTTAMDYWGEGTLVTVSSAKTTPPSVYPLAPGSAAQTNSMVTLGCLVKGYFPEPVTVTWNSGSLSSGVHTFPAVLQSDLYTLSSSVTVPSSTWPSETVTCNVAHPASSTKVDKKIVPRDCGCKPCICEVEEVEDHFIFPPKPKDVLTITLTPKVTCVVVDISKDDPEVQFSWFVDDVEVHTAQTQPREEQFNSTFRSVSELPIMHQDWLNGKEFKCRVNSAAFPAPIEKTISKTKGRPKAPQVYTIPPPKEQMAKDKVSLTCMITDFFPEDITVEWQWNGQPAENYKNTQPIMDTDGSYFVYSKLNVQKSNWEAGNTFTCSVLHEGLHNHHTEKSLSHSPGK light: not shown	0.33	4	0.06	0.2
MB325 (antibody, mouse IgG1, kappa, copies: 2 + 2) heavy: QVQLQESGPGLVKPSETLSLTCAVSGHSISHDHAWSWVRQPPGEGLEWIGFISYSGITNYNPSLQGRVTISRDNSKNTLYLQMNSLRAEDTAVYYCARSLARTTAMDYWGEGTLVTVSSAKTTPPSVYPLAPGSAAQTNSMVTLGCLVKGYFPEPVTVTWNSGSLSSGVHTFPAVLQSDLYTLSSSVTVPSSTWPSETVTCNVAHPASSTKVDKKIVPRDCGCKPCICEVEEVEDEFIFPPKPKDVLTITLTPKVTCVVVDISKDDPEVQFSWFVDDVEVHTAQTQPREEQFNSTFRSVSELPIMHQDWLNGKEFKCRVNSAAFPAPIEKTISKTKGRPKAPQVYTIPPPKEQMAKDKVSLTCMITDFFPEDITVEWQWNGQPAENYKNTQPIMDTDGSYFVYSKLNVQKSNWEAGNTFTCSVLHEGLHNHHTEKSLSHSPGK light: not shown	0.38	4.7	0.15	0.6

The remaining lines, values ahead:

Relative mFcγRII-binding activity (MB110 = 1) (mouse FcγRII) [fold]	relative mFcγRII-binding activity (mIgG1 = 1) (mouse FcγRII) [fold]	Relative mFcγRIII-binding activity (MB110 = 1) (mouse FcγRIII) [fold]	relative mFcγRIII-binding activity (mIgG1 = 1) (mouse FcγRIII) [fold]	Binder
3.29	40.5	0.96	3.9	MB318 (antibody, mouse IgG1, kappa, copies: 2 + 2) heavy: QVQLQESGPGLVKPSETLSLTCAVSGHSISHDHAWSWVRQPPGEGLEWIGFISYSGITNYNPSLQGRVTISRDNSKNTLYLQMNSLRAEDTAVYYCARSLARTTAMDYWGEGTLVTVSSAKTTPPSVYPLAPGSAAQTNSMVTLGCLVKGYFPEPVTVTWNSGSLSSGVHTFPAVLQSDLYTLSSSVTVPSSTWPSETVTCNVAHPASSTKVDKKIVPRDCGCKPCICEVEEVEDVFIFPPKPKDVLTITLTPKVTCVVVDISKDDPEVQFSWFVDDVEVHTAQTQPREEQFNSTFRSVSELPIMHQDWLNGKEFKCRVNSAAFPAPIEKTISKTKGRPKAPQVYTIPPPKEQMAKDKVSLTCMITDFFPEDITVEWQWNGQPAENYKNTQPIMDTDGSYFVYSKLNVQKSNWEAGNTFTCSVLHEGLHNHHTEKSLSHSPGK light: not shown
0.26	3.2	0.11	0.4	MB320 (antibody, mouse IgG1, kappa, copies: 2 + 2) heavy: QVQLQESGPGLVKPSETLSLTCAVSGHSISHDHAWSWVRQPPGEGLEWIGFISYSGITNYNPSLQGRVTISRDNSKNTLYLQMNSLRAEDTAVYYCARSLARTTAMDYWGEGTLVTVSSAKTTPPSVYPLAPGSAAQTNSMVTLGCLVKGYFPEPVTVTWNSGSLSSGVHTFPAVLQSDLYTLSSSVTVPSSTWPSETVTCNVAHPASSTKVDKKIVPRDCGCKPCICEAEEVEDEFIFPPKPKDVLTITLTPKVTCVVVDISKDDPEVQFSWFVDDVEVHTAQTQPREEQFNSTFRSVSELPIMHQDWLNGKEFKCRVNSAAFPAPIEKTISKTKGRPKAPQVYTIPPPKEQMAKDKVSLTCMITDFFPEDITVEWQWNGQPAENYKNTQPIMDTDGSYFVYSKLNVQKSNWEAGNTFTCSVLHEGLHNHHTEKSLSHSPGK light: not shown
4.07	50	0.89	3.6	MB319 (antibody, mouse IgG1, kappa, copies: 2 + 2) heavy: QVQLQESGPGLVKPSETLSLTCAVSGHSISHDHAWSWVRQPPGEGLEWIGFISYSGITNYNPSLQGRVTISRDNSKNTLYLQMNSLRAEDTAVYYCARSLARTTAMDYWGEGTLVTVSSAKTTPPSVYPLAPGSAAQTNSMVTLGCLVKGYFPEPVTVTWNSGSLSSGVHTFPAVLQSDLYTLSSSVTVPSSTWPSETVTCNVAHPASSTKVDKKIVPRDCGCKPCICEAEEVEDVFIFPPKPKDVLTITLTPKVTCVVVDISKDDPEVQFSWFVDDVEVHTAQTQPREEQFNSTFRSVSELPIMHQDWLNGKEFKCRVNSAAFPAPIEKTISKTKGRPKAPQVYTIPPPKEQMAKDKVSLTCMITDFFPEDITVEWQWNGQPAENYKNTQPIMDTDGSYFVYSKLNVQKSNWEAGNTFTCSVLHEGLHNHHTEKSLSHSPGK light: not shown
0.28	3.5	0.05	0.2	MB321 (antibody, mouse IgG1, kappa, copies: 2 + 2) heavy: QVQLQESGPGLVKPSETLSLTCAVSGHSISHDHAWSWVRQPPGEGLEWIGFISYSGITNYNPSLQGRVTISRDNSKNTLYLQMNSLRAEDTAVYYCARSLARTTAMDYWGEGTLVTVSSAKTTPPSVYPLAPGSAAQTNSMVTLGCLVKGYFPEPVTVTWNSGSLSSGVHTFPAVLQSDLYTLSSSVTVPSSTWPSETVTCNVAHPASSTKVDKKIVPRDCGCKPCICEAEEVEDHFIFPPKPKDVLTITLTPKVTCVVVDISKDDPEVQFSWFVDDVEVHTAQTQPREEQFNSTFRSVSELPIMHQDWLNGKEFKCRVNSAAFPAPIEKTISKTKGRPKAPQVYTIPPPKEQMAKDKVSLTCMITDFFPEDITVEWQWNGQPAENYKNTQPIMDTDGSYFVYSKLNVQKSNWEAGNTFTCSVLHEGLHNHHTEKSLSHSPGK light: not shown
